# In US20140114054A1 (UNIVERSITY OF MIYAZAKI, published 2014):
# B1: TfR006 IgG antibody (antibody, V domains shown)
# VH: QVQLVQSGGGVVQPGRSLRLSCAASGFPFKSYGMHWVRQAPGKGLEWVAVISFDGSSKYYADSVKGRFTISRDNSKNTLYLQMNSLRGEDTAVYYCARDSNFWSGYYSPVDVWGQGTTVTVSS
# VL: NFMLTQPHSVSESPGKTVTISCTRSSGSIASNSVQWYQQRPGSAPITVIYEDTQRPSGVPDRFSGSIDSSSNSASLTISGLQTEDEADYYCQSYDSAYHWVFGGGTKLAVL
# Biological target: human TfR on TfR-expressing cells (human, UniProt P02786 1-760)
# Assay: cell-based or functional assay
# human TfR on TfR-expressing cells, sequence (P02786 whole entry): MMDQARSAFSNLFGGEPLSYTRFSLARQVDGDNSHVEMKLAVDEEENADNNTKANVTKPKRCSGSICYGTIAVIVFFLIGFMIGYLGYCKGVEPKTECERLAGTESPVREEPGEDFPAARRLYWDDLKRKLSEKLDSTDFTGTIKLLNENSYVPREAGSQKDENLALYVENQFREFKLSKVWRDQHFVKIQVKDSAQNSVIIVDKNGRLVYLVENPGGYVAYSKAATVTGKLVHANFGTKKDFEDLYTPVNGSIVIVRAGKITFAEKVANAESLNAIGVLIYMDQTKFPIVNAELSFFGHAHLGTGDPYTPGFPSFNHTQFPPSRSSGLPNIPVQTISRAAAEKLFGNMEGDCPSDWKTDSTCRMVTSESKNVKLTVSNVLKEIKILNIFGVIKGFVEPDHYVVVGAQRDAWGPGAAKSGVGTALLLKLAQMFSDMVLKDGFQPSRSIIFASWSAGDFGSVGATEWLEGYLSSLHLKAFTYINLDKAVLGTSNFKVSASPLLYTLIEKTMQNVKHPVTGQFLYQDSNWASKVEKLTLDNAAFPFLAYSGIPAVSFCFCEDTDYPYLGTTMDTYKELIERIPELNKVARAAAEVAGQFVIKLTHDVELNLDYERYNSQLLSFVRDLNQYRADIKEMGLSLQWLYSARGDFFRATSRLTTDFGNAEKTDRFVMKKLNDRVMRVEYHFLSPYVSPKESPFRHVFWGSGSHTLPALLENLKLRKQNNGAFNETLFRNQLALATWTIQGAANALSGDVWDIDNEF
binder,measurement,value
B1,"IC50 (ng/ml) of cell growth, A431",36 ng/mL
same,"IC50 (ng/ml) of cell growth, A549",41 ng/mL
same,"IC50 (ng/ml) of cell growth, BFTC905",44 ng/mL
same,"IC50 (ng/ml) of cell growth, DU145",33 ng/mL
same,"IC50 (ng/ml) of cell growth, HT29",25 ng/mL
same,"IC50 (ng/ml) of cell growth, K562",50 ng/mL
same,"IC50 (ng/ml) of cell growth, KLM1",30 ng/mL
same,"IC50 (ng/ml) of cell growth, MIAPaCa-2",55 ng/mL
same,"IC50 (ng/ml) of cell growth, MKN45",26 ng/mL
same,"IC50 (ng/ml) of cell growth, MT-2",71 ng/mL
same,"IC50 (ng/ml) of cell growth, NCI-H358",37 ng/mL
same,"IC50 (ng/ml) of cell growth, NCI-H1373",127 ng/mL
same,"IC50 (ng/ml) of cell growth, PK45-P",100 ng/mL
same,"IC50 (ng/ml) of cell growth, RAMOS",8 ng/mL
